Where a chain is given by its changes, count along the chain named. Names and notes keep the numbering of the source.
B1: AtHPPD (Arabidopsis thaliana; S267A) (protein)
chain: MGHQNAAVSENQNHDDGAASSPGFKLVGFSKFVRKNPKSDKFKVKRFHHIEFWCGDATNVARRFSWGLGMRFSAKSDLSTGNMVHASYLLTSGDLRFLFTAPYSPSLSAGEIKPTTTASIPSFDHGSCRSFFSSHGLGVRAVAIEVEDAESAFSISVANGAIPSSPPIVLNEAVTIAEVKLYGDVVLRYVSYKAEDTEKSEFLPGFERVEDASSFPLDYGIRRLDHAVGNVPELGPALTYVAGFTGFHQFAEFTADDVGTAESGLNAAVLASNDEMVLLPINEPVHGTKRKSQIQTYLEHNEGAGLQHLALMSEDIFRTLREMRKRSSIGGFDFMPSPPPTYYQNLKKRVGDVLSDDQIKECEELGILVDRDDQGTLLQIFTKPLGDRPTIFIEIIQRVGCMMKDEEGKAYQSGGCGGFGKGNFSELFKSIEEYEKTLEAKQLVG
notes: full-length, N-terminal His tag (pET15b), E. coli BL21 (DE3); Ni-NTA, ion exchange, size exclusion; homodimers in crystal
B2: AtHPPD (Arabidopsis thaliana; F381A) (protein)
chain: B1 chain with A267S, F381A
notes: as for B1
B3: AtHPPD (Arabidopsis thaliana; N282A) (protein)
chain: B1 chain with A267S, N282A
notes: as for B1
B4: AtHPPD (Arabidopsis thaliana; Q293A) (protein)
chain: B1 chain with A267S, Q293A
notes: as for B1
B5: AtHPPD (Arabidopsis thaliana; Q307A) (protein)
chain: B1 chain with A267S, Q307A
notes: as for B1
B6: AtHPPD (Arabidopsis thaliana; N423A) (protein)
chain: B1 chain with A267S, N423A
notes: as for B1
B7: AtHPPD (Arabidopsis thaliana) (protein)
chain: B1 chain with A267S
notes: as for B1

substrate: O=C(O)C(=O)Cc1ccc(O)cc1; experiment: purified protein; type: biochemical, Arabidopsis thaliana; settings: apparent, air-saturated 20 mM HEPES pH 7.0, 25 °C, 0.1 mM FeSO4, 2 mM ascorbate

**Q.** B1 was tested. Which Km did it give?
**A.** The Km was 5.33 ± 1.59 µM.

**Q.** What about the kcat of the same protein?
**A.** Its kcat is 0.249 ± 0.025 s⁻¹.

**Q.** What about the kcat/Km of the same protein?
**A.** The kcat/Km was 46700 M⁻¹ s⁻¹.

**Q.** With B2 as the protein, how does the Km read?
**A.** Its Km is 9.10 ± 0.94 µM.

**Q.** And the kcat?
**A.** Its kcat is 0.924 ± 0.032 s⁻¹.

**Q.** And the kcat/Km?
**A.** Its kcat/Km is 102000 M⁻¹ s⁻¹.

**Q.** For B3, which Km is on record?
**A.** Its Km is 10.83 ± 2.33 µM.

**Q.** What about the kcat of the same protein?
**A.** The kcat was 0.039 ± 0.003 s⁻¹.

**Q.** And the kcat/Km?
**A.** Its kcat/Km is 3600 M⁻¹ s⁻¹.

**Q.** With B4 as the protein, how does the Km read?
**A.** The Km was 90.41 ± 11.33 µM.

**Q.** What about the kcat of the same protein?
**A.** Its kcat is 0.014 ± 0.001 s⁻¹.

**Q.** And the kcat/Km?
**A.** Its kcat/Km is 150 M⁻¹ s⁻¹.

**Q.** How did the Km turn out when B5 was run?
**A.** The Km was 30.31 ± 1.67 µM.

**Q.** And the kcat?
**A.** The kcat was 0.176 ± 0.004 s⁻¹.

**Q.** And the kcat/Km?
**A.** Its kcat/Km is 5800 M⁻¹ s⁻¹.

**Q.** How did the Km turn out when B6 was run?
**A.** The Km was 15.66 ± 4.29 µM.

**Q.** What about the kcat of the same protein?
**A.** Its kcat is 0.545 ± 0.061 s⁻¹.

**Q.** And the kcat/Km?
**A.** Its kcat/Km is 34800 M⁻¹ s⁻¹.

same assay, conditions: apparent, air-saturated 20 mM HEPES pH 7.0, 25 °C, 0.1 mM FeSO4, 2 mM ascorbate, crystal with Co2+, 2.80 Å

**Q.** B7 was tested. Which Km did it give?
**A.** Its Km is 1.87 ± 0.37 µM.

**Q.** And the kcat?
**A.** Its kcat is 1.08 ± 0.053 s⁻¹.

**Q.** And the kcat/Km?
**A.** Its kcat/Km is 577000 M⁻¹ s⁻¹.

Reference: publication PMC6750108, “Crystal Structure of 4-Hydroxyphenylpyruvate Dioxygenase in Complex with Substrate Reveals a New Starting Point for Herbicide Discovery” (Research, 2019)
